These results are taken from patent publication US20040018571A1.

As a reminder, the Kd is the equilibrium constant for the complex coming apart. The term kon denotes the second-order rate constant of association.

This experiment addresses T1, recombinant secreted soluble PSCA with a C-terminal 6xHis and MYC tag (human) (UniProt O43653).
T1 sequence (looked up): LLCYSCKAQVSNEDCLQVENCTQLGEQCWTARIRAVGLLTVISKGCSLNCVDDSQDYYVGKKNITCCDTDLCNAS
The experiment can be described thus: SPR (BIAcore), recombinant His/MYC-tagged PSCA immobilized at low density (30 RU), mAb in solution.

B1: anti-PSCA monoclonal antibody 1G8 (ATCC No. HB-12612) (antibody, from another filing, mouse IgG1, V domains shown)
VH: EVQLQQSGAELVRSGASVKLSCTASGFNIKDYYIHWVNQRPDQGLEWIGWIDPENGDTEFVPKFQGKATMTADIFSNTAYLHLSSLTSEDTAVYYCKTGGFWGQGTLVTVSA
VL: QVVLTQSPAIMSASPGEKVTMACSASSSVRFIHWYQQKSGTSPKRWIYDTSKLASGVPTRFSGSGSGTSYSLTISTMEAEDAATYYCQQWSSSPFTFGSGTKLIIK
With B1, the Kd was 1 nM and the kon worked out at 168000 M⁻¹ s⁻¹.
